Data on 21 sequences can be found in a protein production outcome set (Wang et al. 2014).

This data set in a line: label from the status in PepcDB records.
Turning to “LDLMKEKNLIQKFFKELIKDDGGLSAYGEAQVMKYLEMGAIDTLIVTEDIGITRVTVKCNNCDYAQEVNVKTNEMFKFEEQLKTKACPTCGGAMYIDEEKDIIEHLSDLCHMHNTDIIVVSTDTEEGSQISRAFKGMAAILRYKL”, the protein production result was “not failed”.
In the case of “MIGLSKSRGALSMENQKMPEYETIRAAVAGEKWAVEKVVECYKDEIDRLSTVAVRQPDGSTKQEINEDMRQSITKKLIEALPQFPLEEMEKGNVRLEHHHHHH”, the protein production entry is on record as “not failed”.
Turning to “MYNRPNWQRRRRSLLVLVLGLLFLGFLIQPSYQWTKTNVAAMAGRHDSQMSPIIMIPGSSATQNRFDTLVKQLNKADHRRHSLIKLTVMTDDTIKMTGSLRARDNEPIIVVGFQNNRDGYDNIKHQARWFSLAFKKLAAKYQFNNFKAIGHSNGGLIYTYYFEHYFNRDDIKVKRIMTIGSPYNFSEANLNHKTQMLADFIKYRDRLPKSATMYSVAGTENYDSDGLVPARSVEAGKYIYQGQVKHFTEITVTGTNAQHSDLPQNAQIVTLIRTYMLDKPKQTRKGLVSTGTVE”, the protein production result is listed as “failed”.
Under “MRFPFCTGGKTFVLWDVEVCPIPDGLGPHDVFSNIKRVLMDNGYRGDVSTTPYTDLTKSNGEFNGIPVRHLSAGDRDARLEVYMIDLYSCVVKEDGPLNLMLFVGDISSRSKDFFRVFRLLQSSSSDSSVPLSLTQDGICKALTFGEEVIIRECGERRKVPNSD” stands “not failed”.
Under “MWSCPTLNAPRAAQKWLPVRATPHLCVLHMSRLMLSSTLIDELSYVRKDQLETSALFELIAHRYERHSIAITANEPFSGWSDAMTVAAIDRLVHHSTIIEMNGESYRKRAAVARGASTQNANDEPEDPPNRSSLEHHHHHH” stands “failed”; under “MEQEEPCEAKETASSSIEPKTPNPNVPDSIPAIDSDSSLSEEEIVTEKDRGIVTLSPLCKQRIDSASISDCVLVSDDEIIESLYQNLLRVILSLQQIQSVAVVPEIWCFDGCKTPPPSSRNLDSNMVSDTCPGAPMKLTKISRNIDSGLRRKLF”, “failed”.
As to “MIMSVCLPWLARCRRFLIVSLAFAMLLLGIWGTLPFSLSDHGTAIAALEDDRYDGNIFVVYAGNGSLVPPRLNLRESFERKLPVILVYYLDDSKDCKQYAFIVSRMQEFYGRVASIIPVSVDSIPDQKRFRRDEPGYYYSGGVPQTVILDKSGKKIFDAQGALKFEVVDDVLRDLFDLLPRSESMELKQRTYNEFNSELVD”, the protein production entry is “failed”.
Under “MTDATAEQSVTADADDKPEPYNGLPGAFPYAFRATDSLLFKAYVPVALLLSVAITLVFSFGLITQLAETGSVRGGTFTFSRSFFLFVGLLLVAPLLAPVLSVARRHRRTASSVAYDRALALSAFLFIGSIYLALLTSAPAELREPTQSAVVGFFYSLPPIAGVVPPMLATLGIYLTHRLLK” stands “failed”; under “EQEDKVSGEKTLAVVSASSDDRPSTRGIINDNTYALGVFRTTANTYAPLYNVKHIYSGGEWGADDVIKVDYRNASFFAYYPYHTATGNYAGLAGGTTLTLQAQLFNAGEDICYGAGEASGGGPVSVYNPFVEFLNMKHAYARLRLTLTRGEKFDKTKKCNIQNITFKSNNANFYLTRSLDIASTAGATGGSAVAAGYVHNPNVNIATGKSVTYEYMFPPQPLDGSKLTILVTVDGVTRSCDISTLGSSLDSGKYYGVSLTFTDVGIILSSAVVTVNNFGGQGNTQVDTEL”, “not failed”.
Under “MYIHLGDDFVVSTREIVAIFDYKAKTSPIVEEFLSKQKQRIVSSNSTPKSIVVTLQSIYFSPLASGTLKKRAQSKPEIDSLEHHHHHH” stands “failed”; under “MSSGKDFFVHSHALCESENIGKDSRVWAFAHILPGARLGSECNVCDNVFIENDVIIGDRVTLKCGVQVWDGITIEDDVFIGPNATFTNDLFPRSKVYPQTFARTIIRKGASLGANCTILPGITIGINAMVGAGAVVTRSVPPNAIVVGNPAKIIGYVDAKPVNANSETRAEQKAPGVTATSVKNVTLHTMNEVADIRGSLSAGEFERSVPFKTERYFLVYDVPTAETRGEHAHRICHQFLVAVKGSVHVVADDGVNREEFILDKPNQGIHLPPMTWGIQYRYSQDAVLLVFASHYYDAGDYIRNYEEFKSLIANAELEHHHHHH”, “not failed”; under “MDKPVLKDSMRLFEQLGRVKSRSMFGGFGIFVDETMFALVVNDTLHIRADDATIEKYKQQGYEPYVYKKRGFPVVTKYYALPEDCWSHPDSILNEVRAALEVAKA”, “failed”.
Under “MAYDGLFTKKMVESLQFLTTGRVHKINQPDNDTILMVVRQNRQNHQLLLSIHPNFSRLQLTTKKYDNPFNPPMFARVFRKHLEGGIIESIKQIGNDRRIEIDIKSKDEIGDTIYRTVILEIMGKHSNLILVDENRKIIEGFKHLTPNTNHYRTVMPGFNYEAPPTQHKINPYDITGAEVLKYIDFNAGNIAKQLLNQFEGFSPLITNEIVSRRQFMTSSTLPEAFDEVMAETKLPPTPIFHKNHETGKEDFYFIKLNQFNDDTVTYDSLNDLLDRFYDARGERERVKQRANDLVRFVQQQLHKYQNKLAKLIEEYEQSKNKDTEQLYGELITANIYRIKQGDKEVTALNYYTNEEVVIPLNPTKSPSANAQYYYKQYNRMKTRERELQHQIQLTKDNIDYFSTIEQQLHHISVHDIDEIRDELAEQGFMKQRKNQTKKKKAQ” stands “not failed”; under “IIWDWNVERDRIIVHPDMKSLFGTETHKLNGPMQNWISALHHDDRERFQAVLDIILKNKKGRIDQIFRLSSGGGYYHWFSLRARPAMQKDGKITRVIGTIVNITNHKKA”, “failed”; under “MLLSFFLINSNGEVIIEKSWKTEHTRRVCDLFWQEILKVSSPEELAPLLHFPKFTIVHIYSCGVFLVATVRKTLQSTFALELLHHLVDTFVDYFGEFNEHAIKENFVTVYEIIEEVLDHGFPFTVDIASLKELVPPPSLLSRVLGSVTGSSLSLKDISDWNSRKKVSWRNPNIRYAHNEIFVDIVEEVSVVLNSKGQCIHSGISGSIVVNCRLSGMPELALHLNESSIAKHSFVHPCVRYGRFIREGIISFVPPDGVFQLLKYQTWKAPYIPVTLEPQYSVDKERKHGRLQLTLDIRGCGGKPCEEMMISIPFHHATNITNLNVTVGTVRYDSQIQVCPI”, “failed”.
Consider “MARPRDRQKLDAVKVVETLDNLHARVSERFPASGLAMVCARLADTGRQTAARARRIGRPYLLLRALVVLIIVGGVALEFALAWRLDWSAALRAREGFDLAQGLEAAINLALLSGAAAWFLSSLERRWKQQRVQVALHELRSFCHVIDMHQLTKDPSVILGPRTRHSPPREMSNFQLSRYLDYCAEMLALTAKLAALYAGETDDPVIIAAVNDIETLASDLGRKIWQKIMILGQLNEAAAAQA”, for which the protein production result was “failed”.
With “MTVLDKVNDPTDIKALTPLELEELATNVRDAILNRVSQYPGGHLGPNLGVVEMTIALHKVFNSPVDKLIWDVSHQSYPHKVLTGRKEFFTDKDKFSGTTGYTDPEENEHDFIRVGHTSTSIATAMGYALARDVQGKKENIVAIIGDGALSGGLAFEGLDGAGTLNGNLIIIVNDNEMAITENHGGIYQHLADLRASKGTSANNLFKSFGLDYRYLEEGNDIQSLIVLFESVKDINRPIVLHIHIEKGHGYKPAVENKEGMHQVFAPFDIATGQPVNSSTNIVRSYNNVFLDFMEEKLAKGDNLIAINAAIPMFFGLSQFAKNHPKNYVDGGIAEQYTVTLGGAIAAAGTRAIIFQNATFLQRAYDQLNHDLALNKEPAIVIISNSQIGGTNDTHQGSFVYSQTSNIPNVIDLAATSEEDLFAMLNWAYNQHEHPVFIHLPEHTLENRPTKITDFSKPQYEVVKSGEKVAILGLGAMLEKAENVAEELEKSGFNPTVVNPFFANLLDVAALDKLSETHGLFVTIEDGTKDGGFGQKVATYLASKGIKTLVYGADTEFIDAVPKEELYNRYHIRPELMATDIIEATKESKGPNFFKKIFSKLEHHHHHH” the entry was “not failed”; with “SNSHDGSNFSNKFSAHKDVVEDLLRKDTVGLVTFQDFRARREYLERCAVAEAACQNASRRAEELETKKKRVKRANLSRLSFGDSLEDQEENSVEFAKITRFASSKKANGVGFNTSGQDIVKEPDVFSPKEEGFFGKQNRKIGMDPGVDTSFLPDRDREQEERLERERLKQQWLSEQERVKNEEIDIIYSIWDGRGQRKLLSCKKGTTIAKFLSIVQQKVSTLKHCKVEDLMFIKEDMIIPHHLSFYDLISMKARGKNGSLFCFDVHEDIRIRNDASVEKDDSHAAKVVERRWYERNKHIYPASMWEVFDVSKNYGRVQKDFFGN”, “failed”; with “MSQALPVRDQGRDQGIFAGTLPPAPPKFKWTRLDTYTWAIIAVFALVTRFTGLSSATASGTPVFDEKHYVPQAWDMVRSWINPITGGIESNPGYGLVVHPPLAKQLEALGEWVFGYTPLGWRIMVAIFGTLTIFAIMAIARRLSGSTMVTFIAGILALADGVLLVSSRFGMLDIFLVFFITAAAWALIRDHQQMHQRLNDLLLTNGQITKDFGPRFGFRWWRFTTGVFLGLALSVKWSGLYYIAFFGLTSVFLDLWLRKRYGVRRYVTGTLKNDVIPALGSLVIIPALLYIWSWRAWFASETSVYRHAKTDGTITEDSILQLFPESIAGWIHYHISVLEFHGSLTTSSGHSHPWDSKPWAWLVSGRPILYFSSTDISCDVGGTCRRMIYLFGTPAIWWLTVPVILWALWSFFARRSRGYVVPLVAFAAGFLPWLAAYDRQMYFFYATALVPFTIIMLALACGELWGRGKMTPTGLTRGSMAVVTYISLVVMMFLAFSPLFYGFVIPDYVYESLMWFPSWR”, “not failed”.
Regarding “MGHHHHHHSHMPRGPAGEAGASPPVRRVRVVKQEAGGLGISIKGGRENRMPILISKIFPGLAADQSRALRLGDAILSVNGTDLRQATHDQAVQALKRAGKEVLLEVKFIREVT”, the protein production result was “failed”.
Under “MLVLILSSGVSVAIATETNDLSIAAVLISPSDVVFAKEANTIVVYGITNSGTENLTNITVDVYASDVSGTVPVNTETISSLAGGGTTTIFITDPTIRDLQGSTVTYTAVIDPDNLIPETNEANNNRSSAAVPVRYNGYKGKRYWEGASDITTKHTYDFNGDVSSSSQPSTSYRSQGAWSNGRTETWGGSVPNPDLPSGSTIEQALLYVAYNWDETPGGYPWWNVSFNNVIIDYGNISTGNGILYTDMSNFGLYADYEYGLVVYDVTNLYNSTDYNGLKMYPYNSTFADLTALYPSTLVIIYQNPNMTRKQIFINEECDELGVSESTYGTTPEEATAYAPFTGMSIDVSNVSNATLYSFAGSAGPDEGNLLFNGNTVATNAWHGDAYTASASVFDVKNYINSTGNEAGIQGTVSGGMDVLQQILVVEYVESVPSALDANLTANVTSGTAPLTVQFTDLSEGNVTNWLWDFGDNTNSTSQNVSHTYNSPGTYTVNLTVTGPEGSDSEVKTDFITVSDSNVSAPVAAFTATPLVGTAPLQVAFTDQSTNSPTEWKWEYNNGSGWVEFSNETNASYSFATAVPYDIQLTVSNSGGSDDETKLHYISVGNVREPLNTVQSGTVSGDLYISSPTTWPATEVNQTFTLPAAAVGNIQWAKLYVNTYSGSAANTYALSSTVKLDGDGDSTYESTLGTETMDIASLTNGASFPLNDHVNKVYSDYEAQYDVTSLISAANPAINVKSEAISGKNFDGRIKGVTLVVAYNNTSSTDQTYYWVNHGGDWSSPANGNTIFDTSGLSSGWVSAESKIRYFSYSDANYTFNGVAKTGSTPSNYSGLNTWDVTDNITAGQSSTLAYSKGSGSYKTTLATLKVKYETPGFSNKVTLGDTSPVSPTLASLNGRLYLAWKGDGNNNLNVMYSADNGMTFGNKYTSSETSPESPALCVHNNSLYIAWKGNGSNYLNVAQVTMNGDNITDFSNKVTLGDTSPVSPALASLNGRLYLAWKGDGNNNLNVMYSADNGMTFGNKYTSSETSPESPALCVHNNSLYIAWKGNGNNYLNVAQVTMNGDNITDFSNKVTLGDTSPVSPALASLNGRLYLAWKGDGNNNLNVMYSADNGMTFGNKYTSPETSPESPALCVHNNSLYIAWKGDGNNNLNVAQVI” stands “failed”.
